Experimental findings from US20050049402A1 (Amgen, published 2005) are described below.

What is called Kd is the free concentration of one partner at which half of the binding sites on the other are occupied at equilibrium, for simple one-to-one binding. Usually koff stands for the first-order rate constant of dissociation. Usually kon stands for the rate constant with which the complex forms. Usually EC50 (read off the curve) stands for the concentration needed to bring the measured effect to its halfway point.

For assay [1], the target named is T1, cynomolgus macaque TNFα (KinExA) (cynomolgus macaque, UniProt P79337 77-233, limits assumed).
T1 construct: also called monkey TNFα
Description: KinExA. On the procedure: (§1) The kinetic measurements of the anti-TNFα antibodies were evaluated using KinExA® and BIACORE® technologies. The KinExA® method involves solution-based determination of formal affinity measurements at equilibrium. To measure the binding kinetics of each human anti-TNFα antibody, two experiments in replicates of three were performed. In both experiments a known concentration of antigen was titrated and a different antibody concentration was added to each antigen titration and allowed to reach binding equilibrium. […] The results were analyzed by dual curve analysis. […] In addition, to negate the possibility of avidity effects, Fab fragments were generated by papain cleavage and the kinetic analysis was repeated (see Table 24).
(§2) The KinExA method was also used to measure the Kd describing this binding affinity.

In assay [2] the target is T2, human TNFα (Tumor Necrosis Factor-alpha), soluble (human, UniProt P01375 77-233).
T2 construct: Recombinant (R&D 210-TA/CF) in screens; biotinylated in the limited antigen assay; also called hTNFα; H-TNFα
Description: BIACORE, average. In general terms: Surface plasmon resonance follows binding to a sensor surface in real time, without labels.

Assay [3] addresses T1, cynomolgus macaque TNFα (KinExA). Description: KinExA, TNFα as a monomer. On the procedure: as §1, §2
Background: A kinetic exclusion assay measures how much of one partner remains free in solution.

The target in assay [4] is T2, human TNFα (Tumor Necrosis …). As to the kind of experiment: BIACORE, average N = 5.
Assay [5] shares this target. Description: cell-based or functional assay.
The target is the same in assay [6]. Description: cell-based or functional assay. The source holds these as a separate data set.
The target of assay [7] is transmembrane mutant TNFα expressed on the surface of CHO cells (UniProt P01375 1-233). As to the kind of experiment: cell-based or functional assay.
Chain of transmembrane mutant TNFα expressed on the surface of CHO cells (P01375 whole entry, change not shown, form in doubt): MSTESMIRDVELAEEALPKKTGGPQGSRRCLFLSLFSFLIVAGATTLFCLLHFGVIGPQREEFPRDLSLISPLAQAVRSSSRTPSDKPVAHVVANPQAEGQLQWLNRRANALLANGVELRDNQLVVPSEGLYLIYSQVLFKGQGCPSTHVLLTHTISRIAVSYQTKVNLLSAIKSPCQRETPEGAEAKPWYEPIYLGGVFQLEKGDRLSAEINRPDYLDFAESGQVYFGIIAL
Assay [8] deals with T2, human TNFα (Tumor Necrosis …). As to the kind of experiment: cell-based or functional assay. This is another data set of the same source.
The target of another assay is human TNFα R131Q mutant (human, UniProt P01375 77-233). As to the kind of experiment: ELISA on chimeric/mutant TNFα. The text has this: (§3) In order to define the binding site for different antibodies, a number of residues of hTNFα were mutated using site directed mutagenesis. A panel of antibodies was screened for binding by an ELISA assay. […] Histidine at position 73 was deleted, an example is illustrated in Table 19.

The target in assay [9] is T3, H/M BglI chimeric TNFα (human 1-36, murine 37-157) (human; mouse, UniProt P06804 81-235).
T3 construct: Murine range is printed as 37-157 in human-aligned numbering; also called H/MBgl1; Hu/MBgl1
T3 chain: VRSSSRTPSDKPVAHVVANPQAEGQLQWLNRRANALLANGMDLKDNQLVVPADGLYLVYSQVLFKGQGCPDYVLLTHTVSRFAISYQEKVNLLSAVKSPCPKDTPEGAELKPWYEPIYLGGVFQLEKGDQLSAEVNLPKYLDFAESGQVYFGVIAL
As to the kind of experiment: ELISA on chimeric/mutant TNFα.
Source text: as §3
On the technique in general: In an ELISA, binding on a coated surface is turned into a signal by an enzyme label.

In assay [10] the target is T4, H/M PvuII chimeric TNFα (human 1-125, murine 126-157) (human; mouse).
T4 construct: also called Hu/M PVu11
T4 chain: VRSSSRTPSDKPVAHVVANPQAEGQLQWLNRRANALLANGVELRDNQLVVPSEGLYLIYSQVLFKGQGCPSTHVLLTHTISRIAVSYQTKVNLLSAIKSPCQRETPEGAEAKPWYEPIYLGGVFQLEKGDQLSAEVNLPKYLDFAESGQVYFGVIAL
As to the kind of experiment: ELISA on chimeric/mutant TNFα.
Source text: as §3

In assay [11] the target is T5, H/M HincII chimeric TNFα (human 1-91, murine 92-157) (human; mouse).
T5 construct: Murine range printed 92-157 (human-aligned); also called Hu/M Hin C l1
T5 chain: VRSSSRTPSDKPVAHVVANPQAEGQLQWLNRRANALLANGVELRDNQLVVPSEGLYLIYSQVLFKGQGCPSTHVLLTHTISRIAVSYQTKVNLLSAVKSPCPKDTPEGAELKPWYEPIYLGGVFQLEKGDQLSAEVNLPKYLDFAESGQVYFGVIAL
Description: ELISA on chimeric/mutant TNFα.
Source text: as §3

The target of a further assay is human TNFα R31Q mutant (human, UniProt P01375 77-233). Description: ELISA on chimeric/mutant TNFα.
Chain of human TNFα R31Q mutant (P01375 77-233 R107Q): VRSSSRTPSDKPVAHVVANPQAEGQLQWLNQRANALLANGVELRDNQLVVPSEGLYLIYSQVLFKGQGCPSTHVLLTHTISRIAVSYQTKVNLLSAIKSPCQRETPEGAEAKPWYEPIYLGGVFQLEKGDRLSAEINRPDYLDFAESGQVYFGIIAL
Source text: as §3

A further assay concerns the target T6, mouse TNFα (mouse, UniProt P06804 80-235).
T6 construct: also called M TNFα; murine TNF
T6 sequence: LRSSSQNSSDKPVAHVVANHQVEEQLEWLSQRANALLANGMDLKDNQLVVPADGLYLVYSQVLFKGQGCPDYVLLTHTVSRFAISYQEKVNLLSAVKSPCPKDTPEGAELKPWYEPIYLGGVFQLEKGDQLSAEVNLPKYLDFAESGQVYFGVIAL
As to the kind of experiment: binding to chimeric TNF proteins.

The target of assay [12] is T2, human TNFα (Tumor Necrosis …). Description: KinExA, TNFα counted as one trimer. On the procedure:
as §1

The target is the same in assay [13]. Description: KinExA, TNFα counted as three monomers. As for the experimental part:
as §1

The next assay has as its target T7, human GST-TNFα (human, UniProt P01375 77-233).
T7 construct: also called E. coli expressed soluble human TNF; not shown: GST fusion partner
As to the kind of experiment: ELISA, plate coated with 0.5 µg/ml human GST-TNFα, HRP goat anti-human IgG detection. On the procedure:
(§4) Anti-TNFα antibodies were also tested for their ability to bind to soluble recombinant TNFα. Human and monkey (cynomolgous macaque) TNFα were expressed in E. coli as fusion proteins with GST. Binding was assessed by ELISA. […] Bound antibody was detected using an HRP-conjugated goat anti-human IgG antibody.

Assay [14] has as its target T8, monkey (cynomolgous macaque) GST-TNFα (cynomolgous macaque, UniProt P79337 77-233).
T8 construct: also called E. coli expressed soluble cynomolgous macaque monkey TNF; monkey TNFα; not shown: GST fusion partner
Description: ELISA, plate coated with 2 µg/ml monkey (cynomolgus macaque) GST-TNFα, HRP goat anti-human IgG detection. As for the experimental part: as §4

B1: 299v2 (antibody, human IgG1, V domains shown)
VH: QVQLVESGGGVVQPGRSLRLSCAASGFTFSSYDMHWVRQAPGKGLEWVAVIWSDGSIKYYADSVKGRFTISRDNSKNTLYLQMNSLRAEDTAVYYCAREVESAMGGFYYNGMDVWGQGTTVTVSS
VL: DIQMTQSPSSLSASVGDRVTITCRASQGIRIDLGWYQQKPGKAPKRLIYAASTLQSGVPSRFSGSGSGTEFIFTISSLQPEDFASYYCLQHKSYPLTFGGGTKVEIK
notes: XENOMAX derived, recombinant human IgG1 kappa; also called 299v2Ab; SC299V2
Consider B1, for which, in assay [1], the “fold lower affinity than for human TNFα” value is about 200 fold. In addition, the Kd turned out to be 0.0057 nM in assay [2], 0.626 nM in assay [3], 0.00107 nM in assay [12] and 0.0032 nM in [13]. In addition, the koff in [4] came out at 1.03e-05 s⁻¹. Besides, the kon in [4] was 2.16e+06 M⁻¹ s⁻¹. The “IC50 1 hr Pre-incubation, TNF induced apoptosis in MCF-7 cells” value in assay [5] came out at 0.0186 nM. In assay [5], the “IC50 18 hr Pre-incubation, TNF induced apoptosis in MCF-7 cells” value was 0.0016 nM. In addition, in [6], the “Whole Blood IC50, TNFα-induced IL-8 production” value was determined as 0.131 nM. Moreover, the “ADCC (%)” value in assay [7] was 16%. In addition, the “CDC (%)” value in assay [7] worked out at 9%. Further, in assay [8], the “In vivo Potency (IC50), ALT, hTNFα/D-GalN hepatic injury in mice” value is 50 nM. Besides, the “In vivo Potency (IC50), human TNFα-induced IL-6 in mice” value in assay [8] turned out to be 43 nM. The binding result in the assay with human TNFα R131Q mutant was “binds”; in assay [9] it was “binds”; in assay [10], “binds”; in assay [11] it was “binds”; in the assay with human TNFα R31Q mutant it was “no binding”; in the assay with mouse TNFα it was “no binding”. Moreover, the “EC50 (read off the curve)” value (with human GST-TNFα; in assay [14]) was about 4 ng/mL throughout.
